Test results published in publication PMC10786891, “Massively parallel profiling of RNA-targeting CRISPR-Cas13d”.
Numbering of substitutions follows the chain as printed. Names and notes keep the numbering of the source.

T1: EsCas13d, nuclease-dead (Eubacterium siraeum, UniProt B0MS50, R295A;H300A;R849A;H854A)
T1 sequence: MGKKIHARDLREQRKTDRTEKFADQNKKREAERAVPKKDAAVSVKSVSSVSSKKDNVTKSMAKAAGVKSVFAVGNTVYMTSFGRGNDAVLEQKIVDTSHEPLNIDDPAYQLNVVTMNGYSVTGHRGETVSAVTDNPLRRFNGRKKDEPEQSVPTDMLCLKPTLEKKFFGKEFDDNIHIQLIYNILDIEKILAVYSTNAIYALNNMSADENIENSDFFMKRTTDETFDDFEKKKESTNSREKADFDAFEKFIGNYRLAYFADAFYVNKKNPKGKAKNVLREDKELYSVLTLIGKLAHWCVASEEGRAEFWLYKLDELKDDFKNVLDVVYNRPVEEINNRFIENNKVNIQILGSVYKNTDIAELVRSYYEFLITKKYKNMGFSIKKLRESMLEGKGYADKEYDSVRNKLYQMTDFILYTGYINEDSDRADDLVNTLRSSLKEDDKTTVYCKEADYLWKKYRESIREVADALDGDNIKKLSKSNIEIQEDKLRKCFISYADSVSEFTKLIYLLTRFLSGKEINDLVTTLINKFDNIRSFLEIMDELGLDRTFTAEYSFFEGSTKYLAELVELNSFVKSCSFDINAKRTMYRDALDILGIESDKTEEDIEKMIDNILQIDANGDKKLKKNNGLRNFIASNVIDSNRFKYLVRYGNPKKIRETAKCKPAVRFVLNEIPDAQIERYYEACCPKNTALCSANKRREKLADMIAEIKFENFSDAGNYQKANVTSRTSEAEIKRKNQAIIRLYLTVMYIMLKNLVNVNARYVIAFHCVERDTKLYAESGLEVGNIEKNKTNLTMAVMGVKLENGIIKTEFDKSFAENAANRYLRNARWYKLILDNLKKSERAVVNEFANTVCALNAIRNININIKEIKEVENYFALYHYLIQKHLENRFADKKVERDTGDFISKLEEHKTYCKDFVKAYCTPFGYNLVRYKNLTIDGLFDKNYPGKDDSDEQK

B1: target 1 insU 3' of 18,insU 3' of 4 (mixed)
RNA 1: CACCCGUGCAAAAAUGCAGGGGUCUAAAACUGAGCGGAUAACCUCUCUAUGG
RNA 2: GGGAAUGGAUCCACAUCUACGAAUUCGUACCAUAUGAGAGGUUAUCCGCUUCACCGAGAUCGGAAGAGCACACGU
B2: target 1 insC 3' of 13,insU 3' of 7 (mixed)
RNA 1: B1 RNA 1
RNA 2: GGGAAUGGAUCCACAUCUACGAAUUCGUACCAUAGAGAGCGUUAUCUCGCUCACCGAGAUCGGAAGAGCACACGU
B3: target 1 insA 3' of 13,insU 3' of 6 (mixed)
RNA 1: B1 RNA 1
RNA 2: B2 RNA 2 with C40A, U47C, C48U
B4: target 1 insA 3' of 19,insA 3' of 15 (mixed)
RNA 1: B1 RNA 1
RNA 2: B1 RNA 2 with U35A, G40A, U42G, A44U, U45A, C46U, G48C, C49G, U50C
B5: target 1 insU 3' of 15,insU 3' of 1 (mixed)
RNA 1: B1 RNA 1
RNA 2: B1 RNA 2 with U35G, G36A, A37G, G38U, U51C, C52A, A53U
B6: target 1 insU 3' of 20,insU 3' of 1 (mixed)
RNA 1: B1 RNA 1
RNA 2: B1 RNA 2 with A34U, U35A, U51C, C52A, A53U
B7: target 1 insG 3' of 9,insU 3' of 2 (mixed)
RNA 1: B1 RNA 1
RNA 2: GGGAAUGGAUCCACAUCUACGAAUUCGUACCAUAGAGAGGUUAGUCCGCUCUACCGAGAUCGGAAGAGCACACGU
B8: target 1 insG 3' of 18,insC 3' of 15 (mixed)
RNA 1: B1 RNA 1
RNA 2: GGGAAUGGAUCCACAUCUACGAAUUCGUACCAUAGGAGCAGGUUAUCCGCUCACCGAGAUCGGAAGAGCACACGU
B9: target 1 insU 3' of 15,insA 3' of 11 (mixed)
RNA 1: B1 RNA 1
RNA 2: B8 RNA 2 with G36A, A37G, G38U, C39A, A40G, G42U, U43A
B10: target 1 G12U,A14G (mixed)
RNA 1: B1 RNA 1
RNA 2: GGGAAUGGAUCCACAUCUACGAAUUCGUACCAUAGAGGGUUUAUCCGCUCACCGAGAUCGGAAGAGCACACGU
B11: target 1 insU 3' of 22,insG 3' of 22 (mixed)
RNA 1: B1 RNA 1
RNA 2: B8 RNA 2 with C31U, A32G, U33C, G35U, G36A, A37G, G38A, C39G
B12: target 1 C6G,C22U (mixed)
RNA 1: B1 RNA 1
RNA 2: B10 RNA 2 with C30U, G38A, U40G, C46G
B13: target 1 insA 3' of 21,insG 3' of 21 (mixed)
RNA 1: B1 RNA 1
RNA 2: B8 RNA 2 with U33G, G35U, G36A, A37G, G38A, C39G
B14: target 1 insA 3' of 6,insU 3' of 2 (mixed)
RNA 1: B1 RNA 1
RNA 2: B7 RNA 2 with G44U, U45C, C47A
B15: target 1 insU 3' of 15,insG 3' of 1 (mixed)
RNA 1: B1 RNA 1
RNA 2: B7 RNA 2 with A38U, G39A, U41G, A43U, G44A, U52A, A53G
B16: target 1 insU 3' of 12,insA 3' of 10 (mixed)
RNA 1: B1 RNA 1
RNA 2: B2 RNA 2 with C40G, G41U, U45A, C46U, U47C
B17: target 1 insG 3' of 6,insU 3' of 4 (mixed)
RNA 1: B1 RNA 1
RNA 2: B7 RNA 2 with G44U, U45C, C47G, C51U, U52C
B18: target 1 insU 3' of 13,insU 3' of 5 (mixed)
RNA 1: B1 RNA 1
RNA 2: B2 RNA 2 with C40U, U47C, C48G, G49U
B19: target 1 U3C,G13A (mixed)
RNA 1: B1 RNA 1
RNA 2: B10 RNA 2 with G38A, G39A, U40G, U49C
B20: target 1 C4G,A9C (mixed)
RNA 1: B1 RNA 1
RNA 2: B10 RNA 2 with G38A, U40G, A43C, C48G
B21: target 1 U8C,G17A (mixed)
RNA 1: B1 RNA 1
RNA 2: B10 RNA 2 with G35A, G38A, U40G, U44C
B22: target 1 insU 3' of 21,insC 3' of 9 (mixed)
RNA 1: B1 RNA 1
RNA 2: B8 RNA 2 with A32U, U33A, A34U, G35A, C39A, A40G, G42U, U44A, A45C
B23: target 1 U8C,A9G (mixed)
RNA 1: B1 RNA 1
RNA 2: B10 RNA 2 with G38A, U40G, A43G, U44C
B24: target 1 A14U,G15C (mixed)
RNA 1: B1 RNA 1
RNA 2: B10 RNA 2 with G37C, G38U, U40G
B25: target 1 U10C,U11A (mixed)
RNA 1: B1 RNA 1
RNA 2: B10 RNA 2 with G38A, U40G, U41A, U42C
B26: target 1 insC 3' of 22,insG 3' of 7 (mixed)
RNA 1: B1 RNA 1
RNA 2: B1 RNA 2 with A32C, U33A, A34U, U35A, C47G, G48C, C49G, U50C
B27: target 1 complement block 7-12 (mixed)
RNA 1: B1 RNA 1
RNA 2: B10 RNA 2 with G38A, U40C, U41A, U42A, A43U, U44A, C45G
B28: target 1 U8C,A16G (mixed)
RNA 1: B1 RNA 1
RNA 2: B10 RNA 2 with A36G, G38A, U40G, U44C
B29: target 1 insU 3' of 20,insC 3' of 1 (mixed)
RNA 1: B1 RNA 1
RNA 2: B1 RNA 2 with A34U, U35A, U51C, C52A, A53C
B30: target 1 insC 3' of 9,insG 3' of 3 (mixed)
RNA 1: B1 RNA 1
RNA 2: B7 RNA 2 with G44C, C51G, U52C
B31: target 1 insC 3' of 11,insC 3' of 8 (mixed)
RNA 1: B1 RNA 1
RNA 2: B2 RNA 2 with C40G, G41U, U42C, U47C
B32: target 1 insG 3' of 8 (mixed)
RNA 1: B1 RNA 1
RNA 2: GGGAAUGGAUCCACAUCUACGAAUUCGUACCAUAGAGAGGUUAUGCCGCUCACCGAGAUCGGAAGAGCACACGU
B33: target 1 insC 3' of 16,insG 3' of 10 (mixed)
RNA 1: B1 RNA 1
RNA 2: B8 RNA 2 with G36A, A37C, C39A, A40G, G42U, U44G

molecular target: T1, EsCas13d, nuclease-dead; test: crRNA (strand 1, pre-loaded); Mg2+; 40 mM Tris-HCl pH 7.5, 150 mM NaCl, 6 mM MgCl2, 1 mM DTT, 0.1% Tween-20, 0.2 mg/ml BSA; 25 C; 10 min per concentration, then washed; details: tags: His6-TwinStrep-SUMO cleaved; N-terminal SNAP kept (SNAP-Surface 488); label: 3' end held by stalled T7 RNA polymerase

Row | Binder | Kd
1 | B1 | 20.2 ± 1.3 nM
2 | B2 | 25.7 ± 1.8 nM
3 | B3 | 4.15 ± 0.3 nM
4 | B4 | 16.4 ± 1.8 nM
5 | B5 | 11.2 ± 0.8 nM
6 | B6 | 14.1 ± 1.4 nM
7 | B7 | 18.9 ± 1.2 nM
8 | B8 | 62 ± 11 nM
9 | B9 | 27.8 ± 1.7 nM
10 | B10 | 32.7 ± 3 nM
11 | B11 | 30.3 ± 2.5 nM
12 | B12 | 14 ± 1.1 nM
13 | B13 | 40 ± 5 nM
14 | B14 | 21 ± 4 nM
15 | B15 | 11.6 ± 0.7 nM
16 | B16 | 10.3 ± 0.4 nM
17 | B17 | 10.6 ± 0.5 nM

Row | Binder | Kd
18 | B18 | 22.4 ± 3.3 nM
19 | B19 | 37 ± 8 nM
20 | B20 | 7.2 ± 0.7 nM
21 | B21 | 61 ± 10 nM
22 | B22 | 40.1 ± 2.9 nM
23 | B23 | 13.4 ± 0.6 nM
24 | B24 | ~80 nM
25 | B25 | 35.7 ± 2.9 nM
26 | B26 | 16.2 ± 3 nM
27 | B27 | 16.6 ± 0.7 nM
28 | B28 | 54 ± 5 nM
29 | B29 | 10.1 ± 1 nM
30 | B30 | 7.3 ± 0.5 nM
31 | B31 | ~70 nM
32 | B32 | 12.9 ± 0.5 nM
33 | B33 | 79 ± 15 nM
